# Experimental data reported in the RNAGym collection of RNA variant scans (doi:10.7554/elife.80360).
# B1: HDV Ribozyme (parent)
# chain: GGCCGGCAUGGUCCCAGCCUCCUCGCUGGCGCCGGCUGGGCAACAUUCCGAGGGGACCGUCCCCUCGGUAAUGGCGAAUGGGACCCA
# Variants of: B1
# Test: self-cleavage, relative activity (ratio to wild type); higher = more cleavage; co-transcriptional
row,Variant,self-cleavage
1,C13A C49A,0.0489
2,C14G C32U,0.196
3,C13U G67U,0.712
4,C13G U27C,0.262
5,C13G C22G,0.131
6,C13G C22A,0.0361
7,C13A G53C,0.133
8,C13U G39U,0.495
9,C14A G54U,0.628
10,U12C C85G,0.447
11,C13A G17U,0.169
12,C13A C57A,0.185
13,C13A G81C,0
14,U12C U46G,0.0665
15,U12C U46A,0
16,U12G C33G,0
17,C14A U65A,0.811
18,C13U G34A,0.0875
19,C14A U37C,0.504
20,C14A C61A,0.878
21,C14A A51C,0.959
22,C14G A51U,0.791
23,C13G U46C,0.18
24,C13G U46G,0.0554

row,Variant,self-cleavage
1,C13A U23A,0.138
2,C13A U23C,0.271
3,C14A C57A,0.745
4,U12C C57A,0.268
5,U12G C32A,0.0639
6,U12G C32U,0.399
7,U12C G35C,0.0923
8,U12C C48U,0.534
9,C13U C66A,0.54
10,U12C A83G,0.85
11,U12C A83C,0.166
12,C14A C30G,0
13,C14A C30A,0.104
14,C13G C64G,0.138
15,U12G G80C,0.0791
16,C13G G50U,0.0426
17,U12G U23G,0.256
18,C13G U23C,0
19,C13G U23A,0.151
20,C14A U69C,0.95
21,C14A A83G,0.475
22,C14A C64A,0.793
23,C13U A78U,0
24,C13G C49U,0

row,Variant,self-cleavage
1,U12G G55U,0.748
2,C13G U37A,0.17
3,C14A U47G,0.519
4,C14A U47C,0.415
5,U12G,0.922
6,C13U A83G,0.122
7,C13U A83U,0.185
8,C14A U20A,0
9,C13A C14G,0.0978
10,C13A C14U,0.18
11,C13U G31U,0.185
12,C14G C22U,0.306
13,U12C G17A,0.312
14,C13U G68A,0.502
15,C14G C24U,0.403
16,U12G A51U,1.13
17,C14A G39C,0.0615
18,C13A G31A,0.0594
19,C13A G31C,0
20,U12C G28C,0
21,U12C G28A,0.0707
22,C14A C58G,0.762
23,C14A C21U,0.151
24,C13G U72A,0.0536

row,Variant,self-cleavage
1,C13G G38C,0.0504
2,C14A C22A,0.0692
3,C14A C44A,0.246
4,C14A G76U,1.27
5,U12G C13A,0.415
6,C13U C32A,0.172
7,C13G C18G,0.138
8,C13G C18U,0.0875
9,U12G C24G,0.136
10,U12C G34C,0.115
11,C14A G31U,0.148
12,C14A G31A,0.121
13,C14A C63G,0.935
14,C13G C63G,0.133
15,U12C G54C,0.356
16,C13G G39A,0.0332
17,U12C G39U,0.0723
18,C13G G59U,0.0811
19,C13G G59A,0.148
20,C13U G59C,0.587
21,C13U G59U,0.831
22,C13U C15A,0.482
23,C13A G29C,0
24,C13G A83C,0.222

row,Variant,self-cleavage
1,U12G U20A,0.0573
2,C13U C63A,0.542
3,C13A G76A,0.199
4,U12C C32A,0.256
5,U12C A77U,0.289
6,U12C A77G,0.302
7,C13A C63A,0.155
8,C14A C41G,0.554
9,C14A C41A,0.734
10,C13A C26G,0.657
11,C13A C26A,0.623
12,C13G A78U,0.185
13,C13G A78G,0.111
14,C14A G82U,0.665
15,C13U G50U,0.642
16,C13G A51C,0.0723
17,U12G A77C,0
18,U12C U20A,0.0723
19,C14A G29C,0.0302
20,C14A G29A,0.115
21,U12G G38C,0.178
22,U12G G38U,0.0755
23,C13A G39C,0.0554
24,U12G C64U,0.914

row,Variant,self-cleavage
1,C13U G82A,0.997
2,C13G C26G,0.0978
3,C13G C26A,0.35
4,C13U G17U,0.612
5,C13U G17A,0.623
6,C13G C21G,0.0723
7,C13G C21U,0.141
8,C13G C62A,0.0692
9,C14A G17U,0.199
10,C13G A45U,0.0346
11,C13A C62G,0.287
12,U12G A56C,0.831
13,C13A C61G,0.0959
14,C13A C61A,0.163
15,C13A A77C,0.0462
16,C13A A77G,0
17,U12G G52C,0.937
18,C13A A51U,0.172
19,C13G G82U,0.0361
20,C13G G82C,0.582
21,C13A C41G,0.0504
22,U12C G53C,0.332
23,U12C C86U,0.578
24,C13A C86U,0.242

row,Variant,self-cleavage
1,C13U G81C,0.249
2,C13U G52U,0.394
3,C13U G52A,0.682
4,C13A A16U,0.536
5,C14A A77C,0.115
6,U12C C84G,0.391
7,C13G C19G,0.0791
8,U12G G68U,0.779
9,U12G C75A,0
10,C14A G25U,0.0652
11,C14A G25C,0.201
12,C13U G76C,0.772
13,C13U C57U,0.853
14,U12C G80U,0.18
15,U12C G80C,0.104
16,U12C G80A,0.243
17,U12C C33A,0.0386
18,C13G G74C,0.128
19,C13G U65A,0.101
20,C13G U65C,0.095
21,C14A A45C,0.199
22,U12C G25U,0.0369
23,U12G C14U,1.2
24,C13G G76A,0

row,Variant,self-cleavage
1,U12G C49A,0.935
2,U12G G34A,0.0791
3,C13A A70G,0.166
4,U12G U37A,0.0554
5,C13U G40C,0.0739
6,C13U G40U,0.117
7,U12G U47A,0.776
8,U12G C57U,0.831
9,U12G A70U,1.02
10,U12C G59A,0.185
11,C13U U65G,0.895
12,C13U U65C,0.604
13,C13A C30A,0.0594
14,C13A C30G,0.0282
15,C13U G35A,0.272
16,C13U G35U,0.163
17,C13U G35C,0.166
18,C14G C30U,0.0396
19,U12C C61U,0.404
20,U12C C61G,0.32
21,C13U G73C,0.123
22,C13A G50C,0.283
23,U12C G82C,0.0504
24,C14A G68A,0.811

row,Variant,self-cleavage
1,C14A A16G,0.776
2,C14A C48A,0.485
3,C14A C48G,0.969
4,C14A C85A,0.623
5,C13A A56C,0.156
6,C14A G34C,0.151
7,C13A A43U,0.154
8,U12C G73U,0.0811
9,C14G C26U,1.18
10,C13A C33G,0.175
11,C13G A71G,0
12,C13G A71U,0
13,C13G U60G,0
14,C13U C30A,0.102
15,C13A A45G,0.158
16,C14A C75U,0
17,U12G A45G,0.959
18,U12G A83U,0.867
19,C13G G52A,0.125
20,C13G G52C,0.0475
21,U12C C58A,0.475
22,C14G A42G,0
23,C14G A42U,0.252
24,C13U A45C,0.365

row,Variant,self-cleavage
1,C13U U69C,0.88
2,U12G G59U,0.973
3,U12G C58U,0.751
4,U12G C58G,0.499
5,U12G U65A,1.06
6,C14A G50C,0.639
7,C14A G50A,0.736
8,U12C C22G,0
9,C14A C36A,0
10,U12C C41A,0.388
11,U12C C41U,0.415
12,C13A A42U,0.0845
13,C13A A42G,0.142
14,C13U C14A,0.155
15,C13U C14G,0.391
16,C13A U37C,0.131
17,C14G A87G,0.683
18,U12C U60C,0.594
19,U12C U60G,0.399
20,U12C U47C,0.185
21,U12G U46A,0.332
22,U12G U46G,0.692
23,C14A U23A,0.575
24,U12G U69A,0.997

row,Variant,self-cleavage
1,C13U A16C,0.8
2,U12C C36G,0.128
3,C13G C86U,0.151
4,U12C C49U,0.166
5,U12C C49A,0.322
6,U12C C49G,0.199
7,C13A G35U,0.125
8,U12C U23A,0.0594
9,U12G C85G,0.369
10,C14A C86U,0.9
11,C14A C86G,0.378
12,C13G G25A,0
13,C14A G52C,0.782
14,C13U U79G,0.0519
15,C13U U79C,0.103
16,C13U G80U,0.185
17,C13U C75U,0.0314
18,C13U C75A,0.148
19,C14A G74A,0.182
20,C14A G74U,0.281
21,U12G G50A,0.787
22,U12C C64G,0.308
23,C14A A87U,0.623
24,C13A C85A,0.19

row,Variant,self-cleavage
1,C13G U69G,0.111
2,U12C G55C,0.447
3,C13G C36A,0.0449
4,C13G C36U,0.0369
5,U12G A16U,0.795
6,U12G A16C,0.831
7,C13G A56C,0.0489
8,U12G C41U,0.982
9,U12G G17U,0.475
10,U12G C44U,0.598
11,C14A A42U,0.201
12,C13G G17A,0.0652
13,U12G C66A,0.923
14,C14A C66G,0.57
15,C14A C66A,0.578
16,C13U G53A,0.77
17,C14A C15U,0.192
18,C13A G28U,0.172
19,C13A G28A,0.0875
20,U12C G76C,0.364
21,U12C G76A,0.344
22,C13A C18A,0.169
23,U12C U72C,0.196
24,C13G C24U,0.0504

row,Variant,self-cleavage
1,C13G C24A,0.0594
2,C13G A70U,0.123
3,C13A C24U,0.145
4,C13G G53C,0.123
5,U12G C30G,0
6,C13A U79A,0.119
7,C14A G59A,0.762
8,U12G C62G,0.437
9,C14A A56U,0.688
10,U12G U79A,0.939
11,U12G U79G,0.639
12,C13G G29C,0.0415
13,U12C G52C,0.287
14,C13U G28C,0
15,C13U C86G,0.692
16,U12C C30U,0.156
17,U12C C30A,0.193
18,C13U G55U,0.598
19,C13A G59C,0.237
20,C14A U27G,0.895
21,C13A G52U,0.225
22,C13A C58G,0.0639
23,C13A C58A,0.155
24,C13A A83U,0.142

row,Variant,self-cleavage
1,U12G A42G,0.369
2,U12G A42U,0.415
3,C14A G53U,0.848
4,C14A G53A,0.499
5,C13G C33G,0.0462
6,C13G G67U,0.101
7,C13U U23C,0.415
8,C13U C61U,0.77
9,C13U C61A,0.47
10,C13A A71G,0
11,C13A A71C,0.135
12,C13G G80A,0
13,C13G G80C,0.0997
14,C13G G80U,0.0475
15,U12G C15G,0
16,C14A G28C,0.142
17,C13A G68U,0.125
18,U12G G25U,0.0573
19,C13G C61G,0.0852
20,U12C G40C,0.0405
21,C13A U65G,0.208
22,U12G C21U,0.123
